Experimental data from the DeepSol protein solubility set.

Experiment: soluble on expression in E. coli; label from the status in PepcDB or PDB records

Soluble on expression in E. coli, not soluble:
MGSDKIHHHHHHMDVDLNELAGQFASGFLTVDGVYRTTLEAGRVLGHTRAYPTPKSGFLFALKGEASFVFNGTAYHLSPGKVVHGGKNMELIVKVGPAAFEYCLIHYTLHTRSNHPNDTDSHFLLEPGENLAITEKLDLLHRIKSTPGNFPEIQAKALFYTIFHDMLICARNRLNRESQLVIEQVVEYIHHHYMEPMTVKKLADMSGMGVKPFSYLFKKYIGMFPIDYLIQYRLKRAKNLLVSSNSSIADIAESIGYLDALYFSRLFKKHIGCSPTAFRAQMGNCPSDDQ
MGSDKIHHHHHHMDVIKQIQQAIVYIEDRLLEPFNLQELSDYVGLSPYHLDQSFKMIVGLSPEAYARARKMTLAANDVINGATRLVDIAKKYHYANSNDFANDFSDFHGVSPIQASTKKDELQIQERLYIKLSTTERAPYPYRLEETDDISLVGYARFIDTKYLSHPFNVPDFLEDLLIDGKIKELRRYNDVSPFELFVISCPLENGLEIFVGVPSERYPAHLESRFLPGKHCAKFNLQGEIDYATNEAWYYIESSLQLTLPYERNDLYVEVYPLDISFNDPFTKIQLWIPVKQSPYDED
MGSDKIHHHHHHMDVLRCENLKKRFGRRYVVNGVNLEFHRGEIVGLLGPNGAGKTTIFNMILGVVVPTSGKIIFRDVDITKFPVYRRARLGITYLQQETSIFGGLTVRENIDLVLRFHEKDKEKRERKIEELLHEFHLKHLENQPASFLSGGEKRKLELARMMCLNPAFILLDEPFSGIDPKTVKEIQKMTLELKQKNFGIVITDHNVDELVEIADRIYVIYKGEILAEGSPERILEDETVREVYLGT
MGSDKIHHHHHHMDVRRPIREAVNNRRKPKFLSVSFNQDDSCFSVALENGFRIFNTDPLTSKLSKTFKESATNQSRGTGIGYTRMLYRTNYIALVGGGKRPRHALNKLIIWDDLLQKETITLKFMSSIKDVFLSRIHIVVVLENTIEIFQFQTNPQRICPILDIPPNGSVDYVVCSSKHLQSQASQSQSKILEIIAFPSNKCVGQIQVADLSQIKYNSQNPKESALLPTSIIKAHKNPIKLVRLNRQGTMVATCSVQGTLIRIFSTHNGTLIKEFRRGVDKADIYEMSFSPNGSKLAVLSNKQTLHIFQIFETTNTETNTPDHSRANGSSHPLKNYIPKGLWRPKYLDSVWSICNAHLKNPIFDAHRNDNSGDVTHDNEFYKDRCRIGWCQDSNNREQDDSLVLVWQNSGIWEKFVILEKEQQDSSKTHYSLNESLRNEDTKSAGEPTRWELVRESWREL
MGSDKIHHHHHHMDYELLKTFICLAKLKNFTKTAEQLHVVQSTITSRIKHLEHTIGETLFIRTNKKVLLTGAGEIFLPYAKQLLSIQETAISRLHTLELFKDTLNIGAVHSIYDCHVQNMILKYMQRNKKIAIKITIEHSEELIQMLHDNQLDVTFTYLDIKSSQFICNPFYTDKIILVTGSQNNYNERGITNDELRSLPLLSSAILTEEFQEWFYSIFPRNYIYPLDININSNIVTFLKDGIGFSFMPESAAKNFIEEGSLIEVKLLESTPPSMKSYVLLNKQRINSEAVHSWLNEFPTLTST
MGSDKIHHHHHHMDYPDKMTPAQRAAAKAKGEPADRVACNPNIANGMARIAGYKISQFNDDPEALADAIIKTYRRFGADGARIFTDLFLVSEAMGAKVRKPEDNTADLEEPAINDMSEFDKLKVIDPYTQGRIPVHLRAIEIVRDEIASEVGVTASVVGPFTNAFFLIGVEKMTKMLLKDPESVHKLCEISLQSCIALTDAVLEKGVGVTISEPLSSCTVVSPKHFREFSAPYLKRLIDHIKARTGKLVIHICGITDPIWDDLVEMGVDVLSIDNVADMEKCAETVGDKMVIAGNVDPSAIMYAGSREDVRKATIKCAKQGLKAKKGFMIMSGCSLPVEVPIENIDAMMDTAREMGWPVTEEKLDYLLSFDKYKD
MGSDKIHHHHHHMEAKWLEDFLSLADTKSFSRAARHRHLTQSAFSRRIAALETWMDAKLVDRSINPITLTPAGQMFRGLAADILRSMYAARNLVNGYDQFAASDQVVRFAVAHTLVFTLFPEWLKQLNGEVGHVTARVNAVNVPEGVQQLVEGECDLLLGYHHPQLPIVLDPNHFPFVTLGVERILPVSTPDAHGRPVFELPGAPDAPLPLLAYSSGAFLGNVVEMLLLNASESYALHRCFETHMSEALKGMVVAGHGIGWLPESCVAKELAEGSLVRAGSADWITELEIRLYRSARKRGLAAEQLWTYIMNRPRTAADGLVAAEPGAPAVRIARRSVGGSR
MGSDKIHHHHHHMEFQLDKDWRLQPIKGATGQTYMGIKETEKVFIKRNTSPLLAALSKEGLAPKMIWTKRTANGDVLTAQEWLEGRLLHADEIGKRNDVIDVLYQLHHSNLLKDMLKKIGGEVCTPLTMLKEYKRQLPKELKRNSYLKEVITYLYNHLPEYPETSYVAVHGDVNHRNWLVSNNYLYLVDWDSVMVADPAVDLGMILSHYVPRSGWNQWLLSYGLIPNESTVQRIYWYGLFSFLQEIVRHHQEGERRAMTAEILQLKRMFSI
MGSDKIHHHHHHMEIGLIDIKGTLPCFENFGNLPTKIIHENNISKIKDLEMLIIPGGSIVESGSFTDEFKKQILDFDNYIVGICSGFQILSEKIDIGRKSPIPIIKEGLGLLNVEFSPLICTDLVKFNIENDNLFGKKNQLGHGFHCHTYGNIEITNNSTKIWTTSEIEKLNYKMVGKQNILSGVFKNKVYGTMVHNLLDNDFVVENFLKNMKIKDDEKQEIFKKNSILKEKLKDRSKISENFKKIESNDKKGIILLATGSESGKTFLSTSICSKLKGKTFVSKIGPDVRDIVPSLYLLREPMTKFSSIKLSDRGWSEPSEFLEFVKNSKFNNYIIEGVMGAFTGALNKKNYSGSEVSKILGFPVYIISSCSKTGIEGSFVECMAYHSLLKEMGVNVAGIVLNRVYNAELLEKVKKIANDLNIDLIGVNKLNVNVDNKRGLIPEVEIDYEEFCNATMKLDFEIDIPKINPEKINEDSKTFEEYLKIWSEKLININ
MGSDKIHHHHHHMEIKQLKEGLEGKVDFSLEYLREKPRQRAHMVASLLDDFFQPLSQHVLLEERISIMIRRGYVSRNLQDGSLNQHLQNGYERVMSGSLQSYKFRNVLTTATCLSLIGCSGSGKSSTLDRILATYPQVIYHEKHNFFQLSYLKIECPNNGSQQSLCLNFFREVDKRLGTKYESDYGGKRHGVPTLLALMSQVANQRAIGVLVIDEIQRLKIRKAVGREQMLEFFVELVNTVGIPVILVGTPKARPLFEIELQSARRTTGIGSLYWQPMPQYPDNPAERSEWEAFTNKLWRYQWLTRRDEVLTDEIRDCWYELSQGVLDIVVKLFVLAQLRAIASKLERITVKVLRSVYETELKPVHPMLHAIRRGNPNLIAKYSDLRIEDIDKRLLTLHQKIQALPEEPELPFSNNEQAMRLYNLLVQMDCRSDLLIPLVEKIFIERPKLTLRNMMPIVLEWYENGKEQPTNAPKPAKAALVKRTDWNTLESDDLRFIYSQVGKSESIYEALKDNGLVLDLKKVN
MGSDKIHHHHHHMEKIIITATAESIEQVKELLVAGVDRIYVGEADHALRIPTNFTYDELREIAELVHSAGKELTVAANALMHQDMMDNIKPFMELMREIKVDYLVVGDTGIFYINKRDGYNFKLIYDTSVFVTSSRQINFWKDHGAVEAVLAREIPSEELFDIAKNLEMPAEILVYGASVIHHSKRTLLQNYYNFTKADETDLSRGRGLFLAEPSDPDSHYSIFEDKHGTHIFINNDIDMMTKLSELDEHGYHNWKLDGIYCPGQNFVEIVKLFVQARDLIEKGEFTYDQAFLLDEQVRKLHPAERGLDTGFYEFDRNKVK
MGSDKIHHHHHHMEKTMDRIYKIGGHCFALPDERLMEAVDGISGFKPFVWQPDLVSAKDVYEGAWLPDFTVWEGNGWGFPAFQRKSYGFGYEDVTGTFGVSGDSFLLELAPQGEPSLYLRTMGGTGRGICLYGNYSPRLLRFALWMGYGLMTVRKDTVALHGSCIVYKGKAVLFLGESGTGKSTHTRLWRENIAGSKLLNDDSPIVRYEEGGVWVYGSPWSGKTPCYKAERYPLAGCVRLSQAPYNKIRRLNTLQAYAALHPSAPPAFAYEEELYCGVCSLLEKMVSSIPVYHLECLPDAEAVKLVCRTLYGDGYEADSE
MGSDKIHHHHHHMELDDAYANGAYIEGAADYPPRWAASAEDFRNSLQDRARLNLSYGEGDRHKFDLFLPEGTPVGLFVFVHGGYWMAFDKSSWSHLAVGALSKGWAVAMPSYELCPEVRISEITQQISQAVTAAAKEIDGPIVLAGHSAGGHLVARMLDPEVLPEAVGARIRNVVPISPLSDLRPLLRTSMNEKFKMDADAAIAESPVEMQNRYDAKVTVWVGGAERPAFLDQAIWLVEAWDADHVIAFEKHHFNVIEPLADPESDLVAVITA
MGSDKIHHHHHHMELVQFGCEDWLNVWEKSATIDIAQSTIDSLSLEEVLAFEEDNGEAFMSQMMKEKFSYGWIEGSPAFKSEVAKLYKRVPEDNILSTNGATGANFLTILGLIGQGDHVIAQYPSYQQLYDWPKTLGAQVDYWHIKEENNWLPQIEELRRLVKSNTKLICLNNAAQPTGAIMSPKFLSEVVEIARSVDAYILCDEVYLPLDEETPYSPIADLYEKGISTNSISKTYSVPGIRVGWVATQDRDLCNEFRKIRDYTLICTGVFDDAVAALVLKHKDKVLERARKIVKGNLSILKEWVENEPLVSMVYPNAVSVSFVKFEELDPTKTEDFAIQLLREKGVLIIPGNRFDLSGYARIGYCTDETTLRQGLKLLSEFLREYQV
MGSDKIHHHHHHMEMAIYCGKTYSWANELCSKPLKEVKVVDYNSVVDWVNSQKERAFLIFGTDVIPYSLYEYPKIPVNETPLFKFMERGGVVIWTGDVPFFYIEKDGIKKELFSKGNPFPFKPISVMGHKPLSEKSENSIVGEMLKYDPKDSWRPVEPHPLLIPISIVKSHPYTLYSTWIYKYGKGAFVRLYDSPYVNTQYILSLPERLSSLGIGIRISNFRRFRDFKMIFPEFKIGVILGKNNVGKTTILEAIAMLGKNEDKIRKFRGNISTEIAETELFVNYTYYKAEFSYSQVNRSADVNVLLIYSHDIDFVIDDKVLPYVKSSLRKVTELLNSFDPNIFYVYLSSGNELRVLFNDRTDVSINELGYGYKSLLNFILLYVIYQPRIILIDDLEGFALHPDLLKMFYDLLLKIDVDLILITTQSSDIYAYLAEKRSDKVRFILINDDKYEVLTSEEVLDRLYYEDLRYTALKIH
MGSDKIHHHHHHMEMNDTRRRLIELIAEHHASHPGKKLGIEELSRRAGISRQSFNRYYKDLTDYAAGRKLIGDLVDDTTNAQTKQLINQQQEVMRDLQEQVEHSEIENAKKLKKAMDSYVTSLMVNDLTAHAANSLRITLEKQTVHNLQLKQELTNMEVSLAKAQANAATLAISPTPREGKGEKVKLDVDLSKAVAAFSATKSEDDFEDKKEIALKSLVQSICKLALESKCSIVLFAERYVSRFSSFYDNFSCPDDGLHIIARLPVFYRSELRTFIDKLPPTQNISLYIPYLESASEKKAQRSFYFNSIPKCELDSADEADVIPMTLGLDRIIQFRVKQGD
MGSDKIHHHHHHMEQHQVWAYQTKTHSVTLNSVDIPALAADDILVQNQAIGINPVDWKFIKANPINWSNGHVPGVDGAGVIVKVGAKVDSKMLGRRVAYHTSLKRHGSFAEFTVLNTDRVMTLPDNLSFERAAALPCPLLTAWQAFEKIPLTKQREVLIVGFGAVNNLLTQMLNNAGYVVDLVSASLSQALAAKRGVRHLYREPSQVTQKYFAIFDAVNSQNAAALVPSLKANGHIICIQDRIPAPIDPAFTRTISYHEIALGALHDFGDRQDWQILMQQGEALLTLIAQGKMEIAAPDIFRFEQMIEALDHSEQTKLKTVLTLNE
